Earlier results on two substances are cited in publication PMC8689690.

For the data set, the target named is IL-28R1 (Homo sapiens) (UniProt Q8IU57). The data set can be described thus: ELISA.
Chain of UniProt Q8IU57 (Q8IU57 21-228): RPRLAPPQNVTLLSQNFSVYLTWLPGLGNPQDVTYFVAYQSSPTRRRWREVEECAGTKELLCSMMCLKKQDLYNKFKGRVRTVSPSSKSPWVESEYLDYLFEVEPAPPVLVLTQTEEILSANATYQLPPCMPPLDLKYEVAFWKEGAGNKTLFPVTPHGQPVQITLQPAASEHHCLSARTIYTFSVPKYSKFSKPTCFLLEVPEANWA

As a reminder, the Kd is the constant that tells how readily two partners part at equilibrium. Take IFNL1 (from UniProt Q8IU54): the Kd is 15 nM.
As for IFNL3 (from UniProt Q8IZI9), the Kd is 65 nM.
